From US20260242478A1 (published 2026)

Columns and labels:
PSMA Fab [1] = target: T1, PSMA Fab (biotinylated (site not stated)); assay: clonal phage ELISA on captured PSMA Fab; competitor: PSMA antigen at saturating concentration
T1 construct: also called Anti-PSMA Fab; 006 PSMA Fab

PSMA Fab [2] = target: T1, PSMA Fab; assay: clonal phage ELISA on biotinylated PSMA Fab captured on neutravidin plate, anti-M13 HRP detection; no PSMA antigen
Protocol: (§1) Clonal phage were harvested as crude supernatants and screened via standard ELISAs. […] Prior to the addition of clonal phage. wells were incubated with blocking buffer and PSMA antigen or blocking buffer alone. Without washing or aspirating, clonal phage supernatants were then added to the wells and incubated for a short time. Wells were then washed followed by detection of bound phage using a horse radish conjugated anti-M13 antibody.

Anti-PSMA Fab [3] = target: T2, Anti-PSMA Fab (biotinylated (site not stated)); assay: clonal phage ELISA on biotinylated PSMA Fab captured on neutravidin plate, anti-M13 HRP detection
T2 construct: also called 006 PSMA Fab

Anti-PSMA Fab [4] = target: T2, Anti-PSMA Fab; assay: clonal phage ELISA on captured PSMA Fab, wells pre-incubated with PSMA antigen as competitor, anti-M13 HRP detection;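 note: crude clonal phage supernatants added, with no intervening wash, to wells preincubated with PSMA antigen in blocking buffer, incubated briefly, then washed before detecting bound phage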
Protocol: as §1

[5] = target: T3, PSMA Fab (SEQ ID NOs: 19, 20); assay: clonal phage ELISA, biotinylated PSMA Fab on neutravidin plate, anti-M13 HRP detection;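 note: crude clonal phage supernatants added to wells pretreated with blocking buffer either with or without PSMA antigen, bound phage read after washing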
T3 construct: also called Anti-PSMA Fab; 006 PSMA Fab
Protocol: as §1

[6] = target: T3, PSMA Fab (SEQ ID NOs: 19, 20); assay: clonal phage ELISA on captured PSMA Fab, wells pre-incubated with PSMA antigen as competitor
Protocol: as §1

Binder | Phage binding ELISA signal, Anti-PSMA Fab (Anti-PSMA Fab [3]) | Phage binding ELISA signal, Anti-PSMA Fab with PSMA antigen (Anti-PSMA Fab [4]) | Phage binding ELISA signal, Anti-PSMA Fab [5] | Phage binding ELISA signal, Anti-PSMA Fab with PSMA antigen [6] | also measured
VVKHCVPTWMCAGF [Phage-3514] | – | – | – | – | phage binding ELISA signal (PSMA Fab [1]): 0.0813; phage binding ELISA signal (PSMA Fab [2]): 1.69
SVAYCVPTWMCDGL [Phage-3516] | – | – | – | – | phage binding ELISA signal (PSMA Fab [1]): 0.0618; phage binding ELISA signal (PSMA Fab [2]): 1.69
VVPLCVPMWMCSPM (Clonal phage of the Peptide-180 library) [Phage-3557] | 1.64 | 0.0867 | – | – | –
IEKVCVPAWMCMGF (Clonal phage of the Peptide-180 library) [Phage-3551] | 1.64 | 0.238 | – | – | –
LNAMCVPAWMCTGF (Tested as crude clonal phage supernatant) [Phage-3535] | – | – | 1.66 | 0.0634 | –
FEVACIPQWMCDGF (Tested as crude clonal phage supernatant) [Phage-3537] | – | – | 1.66 | 0.118 | –
FLQACKPPWMCTGF (Tested as crude clonal phage supernatant) [Phage-3544] | – | – | 1.65 | 0.146 | –
VERVCVPQWMCSGF (Tested as crude clonal phage supernatant) [Phage-3533] | – | – | 1.66 | 0.1 | –
DVRMCVPEWMCSGF (Tested as crude clonal phage supernatant) [Phage-3539] | – | – | 1.65 | 0.0753 | –
MERMCVPSWMCTGF (Clonal phage of the Peptide-180 library) [Phage-3550] | 1.64 | 0.089 | – | – | –
IARTCVPAWMCSGF (Tested as crude clonal phage supernatant) [Phage-3538] | – | – | 1.65 | 0.102 | –
VKPMCVPEWMCSGL (Tested as crude clonal phage supernatant) [Phage-3540] | – | – | 1.65 | 0.0907 | –
PELACIPEWMCIGF [Phage-3515] | – | – | – | – | phage binding ELISA signal (PSMA Fab [1]): 0.0803; phage binding ELISA signal (PSMA Fab [2]): 1.69
DARACVPEWMCYGF (Tested as crude clonal phage supernatant) [Phage-3546] | – | – | 1.65 | 0.0805 | –
VEPACVPLWMCFGL (Clonal phage of the Peptide-180 library) [Phage-3558] | 1.64 | 0.0619 | – | – | –
TPPFCIPKWMCQGF (Clonal phage of the Peptide-180 library) [Phage-3548] | 1.65 | 0.117 | – | – | –

Binder | Phage binding ELISA signal, Anti-PSMA Fab (Anti-PSMA Fab [3]) | Phage binding ELISA signal, Anti-PSMA Fab with PSMA antigen (Anti-PSMA Fab [4]) | Phage binding ELISA signal, Anti-PSMA Fab [5] | Phage binding ELISA signal, Anti-PSMA Fab with PSMA antigen [6] | also measured
VVNFCKPQWMCSGF (Clonal phage of the Peptide-180 library) [Phage-3561] | 1.64 | 0.0682 | – | – | –
ENLICKPAWMCVGF (Tested as crude clonal phage supernatant) [Phage-3541] | – | – | 1.65 | 0.0738 | –
TERVCVPDWMCAGF (Clonal phage of the Peptide-180 library) [Phage-3547] | 1.65 | 0.0944 | – | – | –
VDRLCVPNWMCMGL (Clonal phage of the Peptide-180 library) [Phage-3552] | 1.64 | 0.072 | – | – | –
ESVYCIPQWMCSGL (Tested as crude clonal phage supernatant) [Phage-3534] | – | – | 1.66 | 0.0698 | –
TYFRCEPSWMCTGL (Clonal phage of the Peptide-180 library) [Phage-3559] | 1.64 | 0.073 | – | – | –
MERWCIPVWMCQGL (Clonal phage of the Peptide-180 library) [Phage-3560] | 1.64 | 0.0734 | – | – | –
VTPQCVPMWMCTGF (Tested as crude clonal phage supernatant) [Phage-3543] | – | – | 1.65 | 0.105 | –
AGMMCTPPWMCFGF (Clonal phage of the Peptide-180 library) [Phage-3554] | 1.64 | 0.0664 | – | – | –
VVKACIPEWMCSGF (Tested as crude clonal phage supernatant) [Phage-3545] | – | – | 1.65 | 0.125 | –
QSMMCIPSWMCVGF (Clonal phage of the Peptide-180 library) [Phage-3556] | 1.64 | 0.0679 | – | – | –
LYVKCSPEWMCIGF (Tested as crude clonal phage supernatant) [Phage-3542] | – | – | 1.65 | 0.0709 | –
MNIMCRPVWMCTGL (Clonal phage of the Peptide-180 library) [Phage-3549] | 1.65 | 0.0993 | – | – | –
LEMACRPMWMCQGL (Tested as crude clonal phage supernatant) [Phage-3536] | – | – | 1.66 | 0.0725 | –
LAVRCIPEWMCYGL (Clonal phage of the Peptide-180 library) [Phage-3555] | 1.64 | 0.0644 | – | – | –
MVPRCEPEWMCVGF [Phage-3517] | – | – | – | – | phage binding ELISA signal (PSMA Fab [1]): 0.0705; phage binding ELISA signal (PSMA Fab [2]): 1.69
